Consider 3 molecules from PMC4865318 (Molecular Biology of the Cell, 2016).

One experiment addresses T1, MBP-UNC-15 (294–376) (C. elegans, UniProt P10567 294-376).
T1 sequence (looked up): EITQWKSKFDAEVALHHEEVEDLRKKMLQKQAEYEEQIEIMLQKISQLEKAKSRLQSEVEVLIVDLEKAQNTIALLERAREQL
The experiment can be described thus: BLI.

A further experiment has as its target T2, MBP-UNC-15 (221–873) (C. elegans, UniProt P10567 221-872).
T2 sequence (looked up): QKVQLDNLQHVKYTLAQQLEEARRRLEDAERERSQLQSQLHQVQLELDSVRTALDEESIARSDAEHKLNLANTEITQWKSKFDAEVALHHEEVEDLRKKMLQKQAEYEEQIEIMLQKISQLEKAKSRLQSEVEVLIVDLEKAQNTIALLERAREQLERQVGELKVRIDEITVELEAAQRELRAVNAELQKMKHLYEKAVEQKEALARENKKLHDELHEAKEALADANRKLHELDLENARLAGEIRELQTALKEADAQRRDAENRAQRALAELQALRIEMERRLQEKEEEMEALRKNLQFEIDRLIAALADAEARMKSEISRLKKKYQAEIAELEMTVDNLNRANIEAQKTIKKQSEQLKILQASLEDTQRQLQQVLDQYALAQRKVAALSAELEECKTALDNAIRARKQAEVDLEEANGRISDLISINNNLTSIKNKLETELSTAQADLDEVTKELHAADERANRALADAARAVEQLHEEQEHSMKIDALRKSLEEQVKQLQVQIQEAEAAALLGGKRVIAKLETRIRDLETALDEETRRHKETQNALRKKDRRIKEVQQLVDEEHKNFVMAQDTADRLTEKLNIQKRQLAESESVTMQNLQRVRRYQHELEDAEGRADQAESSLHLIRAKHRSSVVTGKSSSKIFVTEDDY
Nature of the experiment: far-Western.

B1: GST-UNC-89 (58–131) (domain or fragment, C. elegans, UniProt O01761 58-131, looked up)
chain: AGSESRSYPVYIAIQDYTPDKEDVEAIPLEQGQIVEVLDKKNSVRWLVRTKARPPRSGWVPGSYFETPTEFYKQ
In the experiment with MBP-UNC-15 (294–376), B1 displayed a dissociation constant Kd of 1100 nM, a koff of 0.00015 s⁻¹ and a kon of 143 M⁻¹ s⁻¹.

B2: GST-UNC-89 (1–500) (domain or fragment, C. elegans, UniProt O01761 1-500, looked up)
chain: MASRRQKQFDRKYSSYRKFTATEDVNYSTHSSRSSYRSESLTSRTDGRGRSTSSEIIAGSESRSYPVYIAIQDYTPDKEDVEAIPLEQGQIVEVLDKKNSVRWLVRTKARPPRSGWVPGSYFETPTEFYKQRRRTREIENVSLSDEQAALVKRDQVYHELLRSEEEFVSSLRTCVDDYIKVLDDPEVPEAVKKNREELTLNIPELYNFHANVMLKGLNYYSDDPGKVGQTFVRLEKDFESHVEFYKQYADTLKLLEEPEIKRFFEGLSAKNDAGASSFVDHVKEIADRMVQYQNYFKEFVKYSARAHGSSKSIQKALELVTTIPQRVHDLEFTNNLKQHPGDTGKLGRIIRHDAFQVWEGDEPPKLRYVFLFRNKIMFTEQDASTSPPSYTHYSSIRLDKYNIRQHTTDEDTIVLQPQEPGLPSFRIKPKDFETSEYVRKAWLRDIAEEQEKYAAERDAISMTATSEMTASSVDFDMNASDQQSEFSEWSGSRKSSLFPG
As to B2, in the experiment with MBP-UNC-15 (221–873), the binding result is recorded as “binds”.

B3: GST-UNC-89 (1–151) (domain or fragment, C. elegans, UniProt O01761 1-151, looked up)
chain: MASRRQKQFDRKYSSYRKFTATEDVNYSTHSSRSSYRSESLTSRTDGRGRSTSSEIIAGSESRSYPVYIAIQDYTPDKEDVEAIPLEQGQIVEVLDKKNSVRWLVRTKARPPRSGWVPGSYFETPTEFYKQRRRTREIENVSLSDEQAALV
As to B3, in the experiment with MBP-UNC-15 (221–873), the binding result is given as “binds”.
